According to article PMC4457421:

Molecular target: Bacteriorhodopsin from Halobium salinarum expressed in E. coli (Halobium salinarum) (UniProt P02945)
Assay: crystal structure; in meso nanovolume crystallisation in monooleoyl-based lipid mesophase, protein 20 mg/ml, 1.5M Na/K-Pi pH 5.6, 22°C; space group C2, three monomers in the asymmetric unit; 1.9 Å

Bacteriorhodopsin from Halobium salinarum expressed in E. coli (from UniProt P02945 14-262) (natural protein)
stoichiometry N: 3
